Data published in patent publication US7470769B2, “Epidermal growth factor receptor antagonists and methods of use” (Molecular Logix, Inc., priority 2004, dated 2008).

Legend:
[1] = molecular target: T1, EGFR in the form of A431 cell membrane receptor preparations (Homo sapiens, UniProt P00533); experiment: EGFR kinase competition ELISA; format: biochemical; details: 50 nM human EGF added
T1 construct: EGFR in the form of A431 cell membrane receptor preparations; endogenous in cells; host or cells: A431 cell membranes
Experimental: (§1) To examine the kinase activity of epidermal growth factor receptor (EGFR) in the presence of hEGF and EGF variants, an ELISA was developed. Briefly, an ELISA plate is coated with poly-glu, tyr (4:1) which serves as a substrate for tyrosine phosphorylation by the EGFR. The ELISA plate is then incubated with assay buffer, which includes an ATP generating system, EGFR in the form of A431 cell membrane receptor preparations, and EGF variant. After a 15 minute incubation ATP is added to the reaction to allow the kinase activity to proceed. Anti-phosphotyrosine antibody is added to bind to the phosphorylated tyrosine bound to the plate. Anti-mouse HRP conjugate antibody is added as the detection antibody, which is visualized with the addition of tetramethyl benzidine (TMB).
The EGFR kinase competition assay is basically the same as outlined above in the description of the kinase ELISA. The difference is that in the initial incubation with the EGFR and EGF variant, 50 nM human EGF is added which competes with the EGF variant for binding to the EGFR. Both the variant EGF and the human EGF are added to the assay plate before the addition of the EGFR and assay buffer, making sure neither ligand has an advantage in binding to the EGFR.

[2] = test system: hEGF-stimulated cell proliferation; experiment: Inhibition of hEGF-stimulated cell proliferation (FIG. 4, FIG. 5); format: cell-based; details: figure legends, cell line not stated
[3] = test system: HER5 cell line (expresses the human EGF receptor); experiment: HER5 cell proliferation assay (WST-1); format: cell-based, murine; details: 48 hour proliferation, serum-free, WST-1 OD 450
Experimental: The HER5 cell line, a murine fibroblast line (derived from the NR-6 line) that has been stably transfected to express the human EGF receptor was provided by Dr. M. C. Hung (MD Anderson Cancer Center). Stock cultures of HER5 were propagated in D-MEM/F12 medium containing 10% fetal bovine serum, 100 units/ml of penicillin and 100 ug/ml of streptomycin in a water-jacketed incubator at 37° C. in a humidified 5% CO2 atmosphere. For HER5 proliferation assays, the cells were changed into DMEM/F12 without serum for 24 hours. Cells were then trypsinized and suspended at 1E5 cells/ml. Serial dilutions of hEGF (PeproTech, Rocky Hill, N.J.), His-tagged hEGF, test proteins were prepared in serum-free DMEM/F12 at 2-fold the final concentration and plated into the wells of 96-well plates. Fifty microliters of cell suspension (5000 cells) were added to appropriate wells bringing the total volume to 100 ul at the desired concentrations. Plates were incubated for a 48 hour proliferation period. Cell proliferation was determined by addition of 10 ul/well of WST-1 Cell Proliferation Reagent (Roche Applied Sciences, Indianapolis, Ind.) for the last three hours of the proliferation period. […] The amount of formazan was measured at 450 nm using a microplate reader (Dynex Technologies) with MRX Revelation software.

[4] = test system: BALB/3T3 cells; experiment: BALB/3T3 proliferation competition assay with hEGF; format: cell-based, murine; details: 0.5 nM and 5.0 nM hEGF, 48 hours
Experimental: The BALB/3T3 proliferation assay was modified to test variants for competition with hEGF in the stimulation of BALB/3T3 cell proliferation. Serial dilutions of the test mutants were tested for proliferation in the presence of 0 nM, 0.5 nM, and 5 nM of the MLX-hEGF. BALB/3T3 cells were suspended at 3E4 cells/ml in complete serum media. 100 ul of cell suspension was plated per well in 96-well plates and incubated for 20-24 hours. Media was then aspirated from the wells, and the cells were washed once with DPBS. His-tagged wild-type hEGF at twice the final concentration was added in 50 ul/well. Serial dilutions of test mutants were prepared at twice the final concentration in serum-free media and 50 ul was added per well, bringing the final volume per well to 100 ml at the target concentrations of wt-hEGF and test mutants. Assay plates were incubated for 48 hours and cell proliferation was determined with WST-1 cell proliferation reagent (10 ul/well, 5 hr incubation). The absorbance at 450 nm was read with a microplate reader.

[5] = molecular target: T1, EGFR in the form of A431 cell membrane receptor preparations; experiment: EGFR kinase ELISA; format: biochemical; details: variant alone, compared with MLX hEGF
Experimental: as §1
The glycine at position 18 was replaced by glutamate (G18E), glutamine (G18Q), lysine (G18K), phenylalanine (G18F), and leucine (G18L). These variants were tested in the kinase assay described above and compared with recombinant wild-type human EGF (MLX hEGF).
The following variations in the glycine at position 39 were made: G39E, G39Q, G39K, and G39L.

[6] = molecular target: EGFR (Homo sapiens, UniProt P00533); experiment: EGFR dimerization (FIG. 6)

Substance | competition with hEGF-related stimulation of EGFR kinase [1] | inhibition of hEGF-stimulated cell proliferation [2] | potency in the HER5 proliferation assay [3] | competition with hEGF in stimulation of BALB/3T3 cell proliferation [4] | activation of the EGFR kinase [5] | triggering of EGFR dimerization [6]
G39L: hEGF polypeptide variant, G39 replaced by leucine (NSDSECPLSHDGYCLHDGVCMYIEALDKYACNCVVGYILERCQYRDLKWWELR; not fully specified; left off: small tags and cut ends) | marked interference with hEGF-related stimulation of EGFR kinase | inhibition of hEGF-stimulated cell proliferation | least potency in that series | only seen in at 0.5 nM hEGF | – | –
V35EG39L: hEGF polypeptide variant, glycine 39 substituted with leucine and valine 35 with glutamic acid (NSDSECPLSHDGYCLHDGVCMYIEALDKYACNCVEGYILERCQYRDLKWWELR; not fully specified; left off: small tags and cut ends) | marked interference with hEGF-related stimulation of EGFR kinase | inhibition of hEGF-stimulated cell proliferation | – | – | unable to activate the EGFR kinase | does not trigger EGFR dimerization
G39K: hEGF polypeptide variant, G39 replaced by lysine (NSDSECPLSHDGYCLHDGVCMYIEALDKYACNCVVGYIKERCQYRDLKWWELR; not fully specified; left off: small tags and cut ends) | – | – | least potency in that series | Apparent competition was observed at both hEGF concentrations | some slight activity | –
G39E: hEGF polypeptide variant, G39 replaced by glutamate (NSDSECPLSHDGYCLHDGVCMYIEALDKYACNCVVGYIEERCQYRDLKWWELR; not fully specified; left off: small tags and cut ends) | – | – | – | – | some slight activity | –
